Reference: patent US20050170334A1

B1: L66 (antibody, V domains shown)
VH: EVQLVESGGGVVRPGGSLRLSCAASGFTFDDYGMSWVRQAPGKGLEWVSGINWNGGSTGYADSVKGRFTISRDNAKNSLYLQMNSLRAEDTALYYCARDRVTMVRGVIMDYYGMDVWGQGTTVTVSS
VL: QTVVTQEPSLTVSPRGTVTLTCSSSTGAVTSGYYPGWFQLKPGQAPMSLIYSARKKHSWTPARFSGSLLGGKAALTLSGVQPEDEAEYYCLLYYGGAYVFGTGTKVTVLG
B2: C40G1 (antibody, V domains shown)
VH: QLQLQESGPGLVKPSETLSLTCTVSGGSISSSFYYCGWIRQPPGKGLEWIGSIYYRGSTYYNPSLKSRVTISVDTSKNQFSLKLSSVTAADTAVYYCARRVTMVRGVKGDYFDYWGQGTLVTVSS
VL: DIQMTQSPSSLSASVGDRVTITCRASQGISSWLAWYQQKPEKVPKSLIYAASSLQSGVPSRFSGSGSGTDFTLTISSLQPEDFATYYCQQYNYYPLTFGGGTKVEIKR

Assays:
[1] = biological target: CM14 (influenza A virus); assay: ELISA, peptide coated, antibody 10 µg/ml
[2] = biological target: CM17 (influenza A virus); assay: ELISA, peptide coated, antibody 10 µg/ml
[3] = biological target: NM17 (influenza A virus); assay: ELISA, peptide coated, antibody 10 µg/ml
[4] = biological target: M2 peptide (extracellular 23-amino-acid M2 peptide) (influenza A virus); assay: ELISA, peptide coated, antibody 10 µg/ml
[5] = biological target: CM12 (influenza A virus); assay: ELISA, peptide coated, antibody 10 µg/ml
[6] = biological target: NM12 (influenza A virus); assay: ELISA, peptide coated, antibody 10 µg/ml
[7] = biological target: CM13 (influenza A virus); assay: ELISA, peptide coated, antibody 10 µg/ml
[8] = biological target: NM13 (influenza A virus); assay: ELISA, peptide coated, antibody 10 µg/ml
[9] = biological target: NM16 (influenza A virus); assay: ELISA, peptide coated, antibody 10 µg/ml
[10] = biological target: NM11 (influenza A virus); assay: ELISA, peptide coated, antibody 10 µg/ml
[11] = biological target: CM15 (influenza A virus); assay: ELISA, peptide coated, antibody 10 µg/ml
[12] = biological target: CM16 (influenza A virus); assay: ELISA, peptide coated, antibody 10 µg/ml
[13] = biological target: M2 expressed on A/HK/8/68 infected MDCK cells (influenza A virus A/HK/8/68); assay: cell-based ELISA, infected MDCK cells
[14] = biological target: M12 (influenza A virus); assay: ELISA, peptide coated, antibody 10 µg/ml
[15] = biological target: NM14 (influenza A virus); assay: ELISA, peptide coated, antibody 10 µg/ml

Binder	ELISA (OD450) [1]	ELISA (OD450) [2]	ELISA (OD450) [3]	ELISA (OD450) [4]	ELISA (OD450) [5]	ELISA (OD450) [6]	ELISA (OD450) [7]	ELISA (OD450) [8]	ELISA (OD450) [9]	ELISA (OD450) [10]	ELISA (OD450) [11]	ELISA (OD450) [12]	EC50 [13]	ELISA (OD450) [14]	ELISA (OD450) [15]
B1	0.08 OD450	0.12 OD450	0.99 OD450	0.51 OD450	0.08 OD450	0.12 OD450	0.08 OD450	0.13 OD450	1.04 OD450	0.09 OD450	0.09 OD450	0.09 OD450	0.229 µg/mL		
B2	0.1 OD450	2.78 OD450			0.1 OD450	0.12 OD450	0.11 OD450	2.41 OD450			0.11 OD450	0.76 OD450		2.71 OD450	2.49 OD450
